Source: the supplement of paper PMC10126150
± gives the standard deviation of the averaged measurements.

Test system: ATP
Assay: switch fluorescence ratio, 500 uM ATP over buffer (Cy3 cluster intensity, sum of 5 cycles each) (fold (ratio)); higher = stronger signal-on switching upon ATP binding; sequences stand for … in TCGTCGGCAGCGTCAGATGTGTATAAGAGACAGTTTTTTTTTTTTTTTTTTTTTTTTT…TC
Details: aptamer strand: ATP DNA aptamer (quencher-CACCTGGGGGAGTATTGCGGAGGAAGG + anchor), 100 nM annealed; ATP concentration: 500 uM
Method in brief: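 Clusters carrying Cy3-labelled switching strands on a modified Illumina MiSeq flow-cell were annealed to 100 nM quencher-labelled ATP aptamer and imaged in selection buffer. They were imaged again after 15 min with 500 uM ATP at 22 °C, over five buffer/ATP cycles with NaOH stripping and re-annealing in between. For each cluster, the fluorescence ratio is the summed Cy3 intensity of the target cycles divided by that of the buffer cycles, averaged per switch-domain sequence. Clusters outside 100-1000 RFU were left out.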
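Note: ATP exposure 15 min at 22 °C before imaging.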

Sequence | switch fluorescence ratio
ATAAAGGGCT | 0.988 ± 0.054
AAAGTTAATG | 1.009 ± 0.0074
TGGCACGACA | 1.09 ± 0.042
GGAATAGAAA | 0.994 ± 0.033
TAGACGAAAA | 1.03 ± 0.024
CTTATAGTAG | 0.9847 ± 0.0066
TTTTTATACG | 0.984 ± 0.072
GATTGAGTAG | 0.986 ± 0.016
ATTTACTCAT | 1.038 ± 0.0012
GCGTATCGCG | 0.985 ± 0.035
GTTAACGTTT | 0.982 ± 0.036
GATACCCTTG | 1.01 ± 0.013
TATCACTGTT | 1.05 ± 0.079
CGGAGGAGC | 1.02 ± 0.016
CCGGGGGCGG | 1.01 ± 0.015
TTCTTGTAAT | 1.014 ± 0.003
TGAAAAGTCG | 0.99334 ± 0.00072
TATGGTTAAT | 0.982 ± 0.016
TTTCTAGCGG | 1.01 ± 0.054
TTAGGGTGAT | 0.974 ± 0.059
TTAACATTAC | 1.38 ± 0.11
CACGGTCTAA | 1.03 ± 0.043
AAGTTATCAT | 0.964 ± 0.019
TTTAATTTTT | 0.988 ± 0.036
GAAAGATAAG | 0.985 ± 0.014

Sequence | switch fluorescence ratio
GCGGCGGTGC | 1.02 ± 0.031
GGACTCAGGG | 1.03 ± 0.051
TGATCACACG | 1.024 ± 0.01
TGGGACCGGG | 1 ± 0.059
CATTAAGTGT | 0.9713 ± 0.0034
ACTAGGAATC | 1.04 ± 0.019
TTTTATACGG | 0.9874 ± 0.0087
TTTGGTTAGC | 1.01 ± 0.02
GAGCTAAGTT | 0.992 ± 0.012
TTATTCCATA | 0.98429 ± 0.00091
GGGAAAATAG | 0.99 ± 0.012
AGATGAGGGC | 1.04 ± 0.022
AGTTTGGACA | 0.997 ± 0.015
TCTAGTGGCA | 0.98 ± 0.038
GGGGACCGGT | 1.054 ± 0.0023
CAGGACTTGT | 0.969 ± 0.02
TTGTGGGCGA | 0.9947 ± 0.0014
GATTACATTT | 1.03 ± 0.022
TTGGTAGCGG | 1.02 ± 0.034
ACGCCGTGTG | 0.999 ± 0.022
GGGCAATTAG | 1.15 ± 0.014
TATGTGTGGG | 1.01 ± 0.026
AGTGGATTGG | 1.01 ± 0.045
GAATCATACA | 1.05 ± 0.074
AATTTCGGGG | 0.999 ± 0.017

Sequence | switch fluorescence ratio
ACAAGGTATA | 1.15 ± 0.15
GGTCGGACGT | 0.992 ± 0.086
TATAGCCTAG | 0.99 ± 0.027
TTGCTACGGA | 1.04 ± 0.013
GGATTATATT | 1.0205 ± 0.00083
GCCATCAAGA | 0.995 ± 0.062
TTTTTCCGGA | 0.997 ± 0.048
CCCTTGGGGG | 1.01 ± 0.014
GGGTCCCCGC | 1.12 ± 0.056
GGGTGGTGGT | 0.981 ± 0.043
TTGTGAGTTT | 1 ± 0.055
TGAAACTATT | 1.01 ± 0.027
TTTAGAGATG | 1.24 ± 0.41
GGTTTAGAGA | 1.02 ± 0.069
TGTTAATGTT | 1 ± 0.029
TCCTTTGTAT | 1.1 ± 0.015
AGGGAATCGT | 0.9953 ± 0.0013
GAAAATGTTG | 0.991 ± 0.033
TTTTTAAACA | 1.01 ± 0.068
TGTCGTTCTT | 0.973 ± 0.013
ACTTCAAGGA | 1.04 ± 0.069
TTTTAAACTT | 1.09 ± 0.15
TAGGGGATAT | 0.964 ± 0.025
CAGTTATGGC | 0.999 ± 0.026
GTTTGTAGTG | 1.01 ± 0.026

Sequence | switch fluorescence ratio
TTCGCTGCCT | 1.03 ± 0.019
AACTGTATAT | 1.15 ± 0.019
TGTTATAATT | 1 ± 0.0048
TTTGGTGGGG | 1.01 ± 0.029
TATAGAGTTT | 1.01 ± 0.023
GGGTTGTTCT | 0.9792 ± 0.0087
TTTTTAGCCC | 1.02 ± 0.053
GCCATGTTGA | 1.02 ± 0.0063
GAGGGACCGT | 0.995 ± 0.025
ACATATTGTG | 1.03 ± 0.062
GGACTTGTGA | 0.997 ± 0.018
CGTTTCGTGC | 0.9919 ± 0.003
CATGACGAAT | 1.03 ± 0.026
GCGTTTAGAT | 1.02 ± 0.013
GAAGAGCCTA | 0.986 ± 0.044
GGCATTGTCT | 1.03 ± 0.023
TCTTACAATA | 1.14 ± 0.091
TAGGGGCCGT | 1.02 ± 0.05
TCCTTGTGGT | 0.973 ± 0.037
TCAGAATGCG | 0.991 ± 0.045
TATCCGGGTG | 3.23 ± 0.25
CAGATGTACC | 1.08 ± 0.028
TAAGCCTTG | 0.996 ± 0.006
CGGTGTTGTC | 0.964 ± 0.0037
GCTTGGGTGC | 1.04 ± 0.067
